US20090092581A1
“And” between values parts separate entries of the source, which are not always exact repeats. Equal entries are not always repeated.

How the values were obtained:
[1] = target: T1, Type I IFN receptor on iLite human IFN-α gene-reporter cells (human) (UniProt P17181); assay: cell-based or functional assay
T1 sequence (looked up) 1: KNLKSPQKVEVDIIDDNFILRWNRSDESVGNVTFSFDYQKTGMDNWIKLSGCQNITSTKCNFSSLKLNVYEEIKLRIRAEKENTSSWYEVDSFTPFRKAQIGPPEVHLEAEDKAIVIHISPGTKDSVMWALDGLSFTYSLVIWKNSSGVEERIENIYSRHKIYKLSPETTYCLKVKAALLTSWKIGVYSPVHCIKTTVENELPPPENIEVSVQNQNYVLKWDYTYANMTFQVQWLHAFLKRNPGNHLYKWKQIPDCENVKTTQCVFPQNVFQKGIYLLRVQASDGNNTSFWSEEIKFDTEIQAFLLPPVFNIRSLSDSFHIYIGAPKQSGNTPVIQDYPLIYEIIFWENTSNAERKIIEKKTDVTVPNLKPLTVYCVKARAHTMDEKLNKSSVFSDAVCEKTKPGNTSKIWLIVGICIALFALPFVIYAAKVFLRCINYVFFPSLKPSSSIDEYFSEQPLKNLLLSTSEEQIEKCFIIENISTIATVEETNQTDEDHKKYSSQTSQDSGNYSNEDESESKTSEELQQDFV
T1 sequence (looked up) 2: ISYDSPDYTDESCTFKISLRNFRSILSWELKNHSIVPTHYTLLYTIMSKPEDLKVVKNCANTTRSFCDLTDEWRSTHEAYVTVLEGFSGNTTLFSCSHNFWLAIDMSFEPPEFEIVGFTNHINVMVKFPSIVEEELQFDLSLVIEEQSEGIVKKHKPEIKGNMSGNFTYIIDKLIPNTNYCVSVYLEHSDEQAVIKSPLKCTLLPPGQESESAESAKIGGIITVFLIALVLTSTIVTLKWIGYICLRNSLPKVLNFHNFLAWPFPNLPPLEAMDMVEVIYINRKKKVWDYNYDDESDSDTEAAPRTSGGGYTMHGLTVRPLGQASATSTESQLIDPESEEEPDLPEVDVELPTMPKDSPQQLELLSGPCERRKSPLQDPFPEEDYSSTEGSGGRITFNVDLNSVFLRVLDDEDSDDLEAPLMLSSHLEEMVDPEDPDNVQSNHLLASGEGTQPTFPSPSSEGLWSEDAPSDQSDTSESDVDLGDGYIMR

[2] = target: Cynomolgus IFN-α protein SEQ ID 54, expressed in Vero tissue culture supernatant (Cynomolgus (Macaca fascicularis)); assay: ELISA kit PBL #41105 on Vero supernatant; read against human IFN-α2a standard curve; unit not given; second of two values
[3] = target: Cynomolgus IFN-α protein SEQ ID 56, expressed in Vero tissue culture supernatant (Cynomolgus (Macaca fascicularis)); assay: ELISA kit PBL #41105 on Vero supernatant; read against human IFN-α2a standard curve; unit not given
[4] = target: Cynomolgus IFN-α protein SEQ ID 66, expressed in Vero tissue culture supernatant (Cynomolgus (Macaca fascicularis)); assay: as above
[5] = target: Cynomolgus IFN-α protein SEQ ID 58, expressed in Vero tissue culture supernatant (Cynomolgus (Macaca fascicularis)); assay: as above
[6] = target: Cynomolgus IFN-α protein SEQ ID 46, expressed in Vero tissue culture supernatant (Cynomolgus (Macaca fascicularis)); assay: as above
[7] = target: Cynomolgus IFN-α protein SEQ ID 62, expressed in Vero tissue culture supernatant (Cynomolgus (Macaca fascicularis)); assay: as above
[8] = target: Cynomolgus IFN-α protein SEQ ID 50, expressed in Vero tissue culture supernatant (Cynomolgus (Macaca fascicularis)); assay: as above
[9] = target: Cynomolgus IFN-α protein SEQ ID 60, expressed in Vero tissue culture supernatant (Cynomolgus (Macaca fascicularis)); assay: as above
[10] = target: Cynomolgus IFN-α protein SEQ ID 42, expressed in Vero tissue culture supernatant (Cynomolgus (Macaca fascicularis)); assay: as above
[11] = target: Cynomolgus IFN-α protein SEQ ID 54, expressed in Vero tissue culture supernatant (Cynomolgus (Macaca fascicularis)); assay: ELISA kit PBL #41105 on Vero supernatant; read against human IFN-α2a standard curve; unit not given; first of two values

Molecule: Cynomolgus IFN-α protein SEQ ID 42, expressed in Vero tissue culture supernatant (from UniProt P01571 24-189) (ligand)
- % Neutralization of Luciferase Induction by anti-Type I IFN Receptor Antibody (25 µg/mL) [1]: > 99%
- Luciferase Induction Activity (U/mL) [1]: 36700 U/mL

Molecule: Cynomolgus IFN-α protein SEQ ID 46, expressed in Vero tissue culture supernatant (from UniProt P01571 24-189) (ligand)
- % Neutralization of Luciferase Induction by anti-Type I IFN Receptor Antibody (25 µg/mL) [1]: > 99%
- Luciferase Induction Activity (U/mL) [1]: 2700 U/mL

Molecule: Cynomolgus IFN-α protein SEQ ID 54, expressed in Vero tissue culture supernatant (from UniProt P01568 24-188) (ligand)
- % Neutralization of Luciferase Induction by anti-Type I IFN Receptor Antibody (25 µg/mL) [1]: > 99%
- Luciferase Induction Activity (U/mL) [1]: 11600 U/mL

Molecule: Cynomolgus IFN-α protein SEQ ID 58, expressed in Vero tissue culture supernatant (from UniProt P01570 24-189) (ligand)
- % Neutralization of Luciferase Induction by anti-Type I IFN Receptor Antibody (25 µg/mL) [1]: > 99%
- Luciferase Induction Activity (U/mL) [1]: 8950 U/mL

Molecule: Cynomolgus IFN-α protein SEQ ID 60, expressed in Vero tissue culture supernatant (from UniProt P32881 24-189) (ligand)
- % Neutralization of Luciferase Induction by anti-Type I IFN Receptor Antibody (25 µg/mL) [1]: > 99%
- Luciferase Induction Activity (U/mL) [1]: 48900 U/mL

Molecule: Cynomolgus IFN-α protein SEQ ID 62, expressed in Vero tissue culture supernatant (from UniProt P01571 24-189) (ligand)
- % Neutralization of Luciferase Induction by anti-Type I IFN Receptor Antibody (25 µg/mL) [1]: > 99%
- Luciferase Induction Activity (U/mL) [1]: 16000 U/mL

Molecule: Cynomolgus IFN-α protein SEQ ID 66, expressed in Vero tissue culture supernatant (from UniProt P01563 24-188) (ligand)
- % Neutralization of Luciferase Induction by anti-Type I IFN Receptor Antibody (25 µg/mL) [1]: > 99%
- Luciferase Induction Activity (U/mL) [1]: 6630 U/mL

Molecule: Human IFN-α Multi-Subtype ELISA kit, PBL # 41105 (kit antibodies) (antibody)
- ELISA estimate of IFN-α protein level in tissue culture supernatant [2]: 8
- ELISA estimate of IFN-α protein level in tissue culture supernatant [3]: 289 and 414
- ELISA estimate of IFN-α protein level in tissue culture supernatant [4]: > 651 and 1500
- ELISA estimate of IFN-α protein level in tissue culture supernatant [5]: > 1120
- ELISA estimate of IFN-α protein level in tissue culture supernatant [6]: 187 and 123
- ELISA estimate of IFN-α protein level in tissue culture supernatant [7]: 75 and 95
- ELISA estimate of IFN-α protein level in tissue culture supernatant [8]: > 1120
- ELISA estimate of IFN-α protein level in tissue culture supernatant [9]: > 651 and 1000
- ELISA estimate of IFN-α protein level in tissue culture supernatant [10]: 287 and 566
- ELISA estimate of IFN-α protein level in tissue culture supernatant [11]: 8

B1: Cynomolgus IFN-α protein SEQ ID 48, expressed in Vero tissue culture supernatant (ligand)
chain: MALSFSLLMAVVVLSYKSICSLGCDPPRTHSLGHRRALILLAQMERISPFSCLKDRCDFAFPQEEFDGNQFQKAQAMSVLHEMIQQTFNLFSTKDSSAAWEQNLLEKFSAELYQQLNDLKACVIAEPGMEETLLMNEDSILAVKKYFQRITLYLTEKKYSPCAWEVVRAEIMRSLSFSTNLQKRLRRKD
- % Neutralization of Luciferase Induction by anti-Type I IFN Receptor Antibody (25 µg/mL) [1]: > 99%
- Luciferase Induction Activity (U/mL) [1]: 2170 U/mL

B2: Cynomolgus IFN-α protein SEQ ID 50, expressed in Vero tissue culture supernatant (ligand)
chain: CNPSQTHNMNNRRTLMLMAQMRRISPFSCLKDRNDFEFPQEEFDGNQFQNTQAISVLHEMMQQTFNLFSTKDSSAAWDETLLDKFYIELFQQLNDLEACVIQEAGVEETPLMNEDSILAVRKYFQRITLYLMEKKYSPCAWEVVRAEIMRSLSFSTNLQKRLRRKD
- % Neutralization of Luciferase Induction by anti-Type I IFN Receptor Antibody (25 µg/mL) [1]: > 99%
- Luciferase Induction Activity (U/mL) [1]: 8040 U/mL

B3: Cynomolgus IFN-α protein SEQ ID 56, expressed in Vero tissue culture supernatant (ligand)
chain: CDLPQTHSLGHRRALILLAQMGRISPFSCLKDRHDFGFPQEEFDGNQFQKAQAMSVLHEMIQQTFNLFSTKDSSAAWEQNLLEKFSAELYQQLNDLKACVIAEPGMEDTPLMNEDSILAVKKYFQRITLYLTEKKYSPCAWEVVRAEIMRSLSFSTNLQKRLRRKD
- % Neutralization of Luciferase Induction by anti-Type I IFN Receptor Antibody (25 µg/mL) [1]: > 99%
- Luciferase Induction Activity (U/mL) [1]: 822 U/mL

B4: Cynomolgus IFN-α protein SEQ ID 44, expressed in Vero tissue culture supernatant (ligand)
chain: CDLPQTHSLGHRRALILLAQMGRISPFSCLKDRRDFAFPQEEFDGNQFQKAQAMSVLHEMIQQTFNLFSTKDSSAAWEQNLLEKFSAELYQQLNDLKACVIAEPGMEDTPLMNEDSILAVKKYFQRITLYLTEKKYSPCAWEVVRTEIMRSLSFSTNLQKRLRRKD
- % Neutralization of Luciferase Induction by anti-Type I IFN Receptor Antibody (25 µg/mL) [1]: > 99%
- Luciferase Induction Activity (U/mL) [1]: 2830 U/mL

B5: Cynomolgus IFN-α protein SEQ ID 52, expressed in Vero tissue culture supernatant (ligand)
chain: MALSFSLLMAVVVLSYKSICSLGCDLPQTHSLGHRRALILLAQMQRISLPSCLKDRHDFAFLQEFDGNQFQKAQAMSVLHEMIQQTFNLLSTKDSSAAWDETLLDKFYIELFQQLNDLEACVIQEAGVEETPLMNEDSILAVRKYFQRITLYLTEKKYSPCAWEVVRAEIMRSLSFSTNLQKRLGRKD
- % Neutralization of Luciferase Induction by anti-Type I IFN Receptor Antibody (25 µg/mL) [1]: > 99%
- Luciferase Induction Activity (U/mL) [1]: 515 U/mL
